The values below are quoted from earlier work in article PMC6886688.

What is called pKa is the pH at which an ionisable group is half protonated.

In this data set the test system is Tyr134.

For the substance “Cellular retinoic acid binding protein 2 (CRABP2) (Homo sapiens (inferred; not stated in the article))”, the pKa is listed as about 7.6.
